Experiments:
MS2 coat protein [1] = assay: apparent KD of MS2 coat protein; designed switch direction (-1 OFF switch, 1 ON switch): 1; higher = weaker reporter binding
Procedure, shortened: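 Designed RNA switches with common flanks were transcribed on Illumina chips by stalled E. coli RNA polymerase and titrated with SNAP-549-labelled MS2 coat protein, from 0.7 or 1.5 nM doubling to 3 µM, in Tris-HCl pH 7.5 buffer with KCl, MgCl2, BSA, DTT, tRNA and Tween-20. Steps lasted 0.8–1.5 h (lowest) to 10–20 min (highest). Titrations ran without input, with 200 uM small-molecule ligand, or with an oligonucleotide input. Normalised cluster fluorescence was curve-fitted, and apparent KD is the per-design median over clusters.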

MS2 coat protein [2] = assay: apparent KD of MS2 coat protein; higher = weaker reporter binding; conditions: Eterna round: R107
Procedure, shortened: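 With or without constant ligand, designed RNA switches in 100 mM Tris-HCl pH 7.5, 80 mM KCl and 4 mM MgCl2 were titrated with SNAP-549-labelled MS2 coat protein. Concentrations went up in twofold steps from 0.7 or 1.5 nM to 3 µM. The switches had been transcribed on-chip from Illumina sequencing clusters, and apparent KD is the per-design median of normalised cluster binding-curve fits.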

[3] = input ligand: microRNA oligo, concentration not stated
[4] = input ligand: theophylline 20 uM
[5] = input ligand: theophylline 2 mM
[6] = input ligand: tryptophan 2.4 mM

| Sequence | apparent KD of MS2 coat protein (MS2 coat protein [1]; input ligand: FMN 200 uM) [nM] | apparent KD of MS2 coat protein (MS2 coat protein [1]; [3]) [nM] | apparent KD of MS2 coat protein (MS2 coat protein [1]; input ligand: none) [nM] | apparent KD of MS2 coat protein (MS2 coat protein [2]; input ligand: arginine 13.2 mM) [nM] | apparent KD of MS2 coat protein (MS2 coat protein [2]; input ligand: none) [nM] | apparent KD of MS2 coat protein (MS2 coat protein [2]; [4]) [nM] | apparent KD of MS2 coat protein (MS2 coat protein [2]; [5]) [nM] | apparent KD of MS2 coat protein (MS2 coat protein [2]; [6]) [nM] |
| --- | --- | --- | --- | --- | --- | --- | --- | --- |
| AAAAAACAUGAGGAUCACCCAUGUGAAAAUAUGGGAGGAUAUACAAACACGAAAGUGAAAGUAGAAGGCCUAAAAA [SS! MT 16] (Eterna round: R96, puzzle: Same State 1) | 17.2 | 95.4 | 127 | – | – | – | – | – |
| AAAACAUGACGAGGAUAUGGAACAUGAGGAUCACCCAUGUAUGUUCCAUAACGCGAAUGACGAAUCCAGAAGGCGUCGUGAAAA [Mat - Same State NG 2 - JL mod - D27] (Eterna round: R96, puzzle: Same State NG 2) | 25.1 | 181 | 272 | – | – | – | – | – |
| AAAAGAAACACAGGAUAUACCGCAAUUAACACGGUAGAAGGGUGGGACAUGAGGAUCACCCAUGUGACCUGAACACCAGGUCGC [Enrien] (Eterna round: R96, puzzle: Same State NG 1) | 369 | 17.9 | 105 | – | – | – | – | – |
| AAAAGAAACAUGUACCUGAGUACAUGAAAACAUGAGGAUCACCCAUGUAAUAAGUGGGUGUUUUGUCUUUGUCUUAU [JL pocket 34, mod 5] (Eterna round: R96, puzzle: Sensor for hsa-mir-208a) | 50.8 | 119 | 51.8 | – | – | – | – | – |
| UGGUGUAGGGUAAAUAGGAUUAGUACAGAAGGAGCGCGAAUAAACGCAGGUAGGUCGCUGGAAUACAUGAGGAUCACCCAUGUUC [Same State Arginine A GF 25] | – | – | – | 22.6 | 22 | 24.7 | 26.7 | 26 |
| UGUACAUAAUUAGGUUACCUAUGUACAGAAGGAGCGUCGAUGACGACAGGUAGGUCGCUGUUAACAUGAGGAUCACCCAUGUACA [Arg A Ex t4] | – | – | – | 37.7 | 44.4 | 46.2 | 57.3 | 42.4 |
| UGUACCAUGUCGGCCGCCACUCAUGAUAAAUAUGAGGAUCACCCAUAUAGCGUCAAAGACGCUAUGAGGACCGGGACAUGGUACU [TryBS Zipper 2] | – | – | – | 40.8 | 41.3 | 50.5 | 50.4 | 14 |
| UGUACUAUGUGAAGGAGCGAGAAUCCUACAUGAGGAUCACCCAUGUAACAGCGAAAGCUGACUCAGGUAGGUCGCACAUAGUACU [ArgBS - First try] | – | – | – | 111 | 130 | 115 | 144 | 128 |
| UGUAUGGACUGAAGGAGCGCCUCAAAAUAACAUGAGGAUCACCCAUGUGGCGAAAGCCUUGGGCAGGUAGGUCGCAGUCCAUACU [ArgBX 1 #StaticStem] | – | – | – | 62 | 49.9 | 76.2 | 72.1 | 52.9 |
| UGUAUGGACUGAAGGAGCGCCUCAAAAUAGCAUGAGGAACACCCAUGCAAGGCGAAAGCCGGGCAGGUAGGUCGCAGUCCAUACU [ArgBX 3] | – | – | – | 21 | 20.3 | 32.2 | 27.2 | 22.6 |
| UGUAUGGACUGAAGGAGCGCCUCAAAAUAGCAUGAGGAUCACCCAUGCAAGGCGAAAGCCGGGCAGGUAGGUCGCAGUCCAUACU [ArgBX 3] | – | – | – | 13.5 | – | 14 | 14.5 | 13 |
| UGUAUGGACUGAAGGAGCGGAAGAUAGCUUGAGGAUCACCCAAGUAAUAAGGCGAAAGCCUUCCAGGUAGGUCGCAGUCCAUACU | – | – | – | 31.4 | 35.2 | 43.1 | 38 | 38.6 |
| UGUAUGGACUGAAGGAGCGGUUGAUAACAUGAGCAUCAGCCAUGUAAUAAGGCGAAAGCCAACCAGGUAGGUCGCAGUCCAUACU | – | – | – | 8.26 | 9.68 | 12.5 | 9.11 | 14.8 |
| UGUAUGUGAUCUGAUACCAGAGUGACGCGAAAGCGAACCUGAGGAUCACCCUGGUAAUAACUCCCUUGGCAGCAGAUCGCAUACU | – | – | – | 73.1 | 61.1 | 44.3 | 20.7 | 69.8 |
| UGUAUGUGAUCUGAUACCAGCGUUGAUAACCUGAGGAUCACCCUGGUAAAGGCGAAAGCCCGCCCUUGGCAGCAGAUCGCAUACU | – | – | – | 182 | 611 | 280 | 24.9 | 787 |
| UGUAUGUGAUCUGAUACCAGCUAGCGGAAACGCAAAAGCUUGAGGAUCACCCAAGUGGAAAGCCCUUGGCAGCAGAUCGCAUACU [Denovo 1 #StaticStem #AlternativeMS2] | – | – | – | 17.5 | 15.1 | 14.7 | 9.89 | 17.4 |
| UGUAUGUGAUCUGAUACCAGUCCAACUGGUAAAACACGAGGAUCACCCGUGUAAAAUUGGGACCCUUGGCAGCAGAUCGCAUACU | – | – | – | 70 | 87.5 | 51.9 | 12.6 | 87.9 |
| UGUAUGUGAUUUGAUACCAGACCAGCGGGUGUUGCAUGAGGAUCACCCAUGUAGGUUUGGGUCCCUUGGCAGCAAAUCGCAUACU [SS Theo B #24 Ms18] | – | – | – | 289 | 482 | 438 | 127 | 523 |
| UGUAUGUGAUUUGAUACCAGUCCAACUGGUAAAACAUGAGGAUCACCCAUGUAAAAUUGGGACCCUUGGCAGCAAAUCGCAUACU [SSTheo B #21] | – | – | – | 144 | – | 346 | – | 534 |

| Sequence | apparent KD of MS2 coat protein (MS2 coat protein [1]; input ligand: FMN 200 uM) [nM] | apparent KD of MS2 coat protein (MS2 coat protein [1]; [3]) [nM] | apparent KD of MS2 coat protein (MS2 coat protein [1]; input ligand: none) [nM] | apparent KD of MS2 coat protein (MS2 coat protein [2]; input ligand: arginine 13.2 mM) [nM] | apparent KD of MS2 coat protein (MS2 coat protein [2]; input ligand: none) [nM] | apparent KD of MS2 coat protein (MS2 coat protein [2]; [4]) [nM] | apparent KD of MS2 coat protein (MS2 coat protein [2]; [5]) [nM] | apparent KD of MS2 coat protein (MS2 coat protein [2]; [6]) [nM] |
| --- | --- | --- | --- | --- | --- | --- | --- | --- |
| UGUCAGCGAAAGUUGACAUGUCUUACCGGUCGAGGACCGGUACGGCCGCCACUCGAUCACUCGCACAUGAGGAUCACCCAUGUCG [SS Tryp A #20] | – | – | – | 11.7 | – | 14.5 | 13.9 | – |
| UGUUUGGUGCGCGAGUGUUGGAUAAUUGAUACCAGUGUAGAUGUGCGCCCUUGGCAGCGAAUCCGAACAUGAGGAUCACCCAUGU [5.Z] | – | – | – | 41.2 | 27.1 | 32.3 | 35.7 | 29.5 |
| UUAAUCUUGGUUGAAAACAAUUAAGCAGAAGGAGCGUGAUAAAACACAGGUAGGUCGCUGAAGGGAACAUGAGGAUCACCCAUGU [AstrosSSArgA#14] | – | – | – | 25.4 | 26.6 | 41.1 | 31.6 | 25.6 |
| UUAGAUUGCCGAAGGAGCGAGAUAGCCUACAUGAGGAUCACCCAUGUAGAAACGGGCUGAUCUCAGGUAGGUCGCGGCAGGUAGC [Soaquatan] | – | – | – | 84.6 | 26.2 | 27.4 | 25.8 | 24.9 |
| UUAGUAACGACGGCCGCCACUGAAUUUGAACAUGAGGAUCACCCAUGUAGAGAUCCUAGAAUAAACAGGACCGGGUCUGAUAAUG [Exclusion Tryptophane B GF3] | – | – | – | 80.8 | – | 139 | 120 | – |
| UUAUUUAUAAUGGAUACCAGUCGUAUGGCCCGGCAUCCUGACAUGAGGAUCACCCAUGUCGACCCUUGGCAGCUGUUAUGGGUUU [XTheo B #21] | – | – | – | 14.9 | – | 17 | – | 13.8 |
| UUCAGACAUGAGGAUCACCCAUGUACUGAAGGAGCGGAUAAAUAUCCAGGUAGGUCGCAGUAUUGAGGGUCUACUUCCAGUCUUA [Rexeesqu] | – | – | – | 11.7 | 9.36 | 12.9 | 10.4 | 10.1 |
| UUCCACCUAAAGCGUUGCCCUCGUGAUGAUACCAGUUUCAGCGGUAACCCUUGGCAGCAUCGGACAUGAGGAUCACCCAUGUGGA [theeternabot_exclusion_MS2_Theo_A_47] | – | – | – | 64.9 | – | 136 | – | 107 |
| UUCUACAUGAGGAUCACCCAUGUGGGUGAUACCAGCACUUUUUGGUGCCCUUGGCAGCACAUGAGAAUGCCGUAAAAUCGGCGAU [Ceanteis] | – | – | – | 74.7 | – | 577 | – | 503 |
| UUCUGGACCCGUGAUACCAGAGACAUGAGGAUCACCCAUGUACAUGAGGAUCACCCAUGUCUCCCUUGGCAGCACUGCAGGGAGC [Exclusion Theophylline B GF 14] | – | – | – | 45.4 | – | 169 | – | 133 |
| UUGACAUGAGGAUCACCCAUGUUAGCUGAAGGAGCGAGGUAGUACUCAGGUAGGUCGCAGAGAGCAGAGUUAGUUGUUCUCAUGU [X-ArgiA-ms2@4] | – | – | – | 21.5 | 19.1 | 28.5 | 23.3 | 18.6 |
| UUGGGUUUGUGAAGGAGCGGGUAUGUUUUCUAGUGGAUCCUAACAUGAGGAUCACCCAUGUCCCAGGUAGGUCGCGCGGGUUUGG [12.U] | – | – | – | 64.6 | 117 | 227 | 99.8 | 81.8 |
| UUGUGGUAGGCGCAUACUCAUUUAUACAAGCGAGGACCGGUACGGCCGCCACUCGGAAUAAAACAUGAGGAUCACCCAUGUACCG [theeternabot_exclusion_MS2_Trp_A_50] | – | – | – | 12.9 | – | 17.1 | 14.6 | – |
| UUGUUGUUUGGAAGGAGCGUGUAUGAUUUAGAACAUGAGGAUCACCCAUGUUGGAGGAUAGCACAGGUAGGUCGCCGGGUGGUGG [11.X] | – | – | – | 16.2 | 13.4 | 23.6 | 21.4 | 15 |
| UUUAUUUAUUUAUUUAUUUAUUUAACAGAAGGAGCGUGGAUUAACACAGGUAGGUCGCUGACAUGAGGAUCACCCAUGUAUUAUU [SSAA #1] | – | – | – | 106 | 28.4 | 48 | 41.6 | 35.8 |
| UUUCAGUGGACGGCCGCCACUGAAGUCGAUACAAUCAUGUAGAACAUGAGGAUCACCCAUGUAGUCAGGACCGGGUCCAAUGACU [Tryp B SS t3] | – | – | – | 15.9 | 22.9 | 21.3 | 22.8 | 20.5 |
| UUUGCACAUGAGGAUCACCCAUGUACAGAUACCAGCCUCAUCUACGGCCCUUGGCAGCUGAGAUAAUGGUGACGUGAUGGGCUUU [Edaniser] | – | – | – | 13.5 | – | 17.2 | – | 11.6 |
| UUUUAACAUGAGGAUCACCCAUGUAAUGAUACCAGAGACGAAAGUCUCCCUUGGCAGCAUAAUCAUUACAUGAGAUGGAAACAUC [Theophylline A 7] | – | – | – | 29.2 | – | 48.5 | – | 17.5 |
| UUUUUUAACAUGGCGUAUCGGAAAACCGAUACCAGUACAGAAAUGUACCCUUGGCAGCGGCGUUUUACAUGAGGAUCACCCAUGU [Ex Theophylline A 3] | – | – | – | 21.2 | – | 65 | – | 27.7 |

— the supplement of paper PMC9170038
